Assay results reported in patent US20100190692A1 (published 2010).
Each block holds one molecule with its values, some of them ahead of it. *1 amine or outer side, *2 acyl side, *3 side chain or, on linkers, in order; H or OH if unused. [ ]: non-standard residue; d: D form. dSer(tBu) = CC(C)(C)OC[C@@H](N[*:1])C(=O)[*:2]; pGlu = O=C1CC[C@@H](C(=O)O)N1; azaGly = NNC(=O)O

Key:
human GnRH receptor [1] = target: T1, human GnRH receptor (human, UniProt P30968 1-328); test: cell-based or functional assay
T1 construct: whole, on cells; Endogenous receptor; also called LHRH receptor; human pituitary GnRH receptor
T1 sequence (looked up): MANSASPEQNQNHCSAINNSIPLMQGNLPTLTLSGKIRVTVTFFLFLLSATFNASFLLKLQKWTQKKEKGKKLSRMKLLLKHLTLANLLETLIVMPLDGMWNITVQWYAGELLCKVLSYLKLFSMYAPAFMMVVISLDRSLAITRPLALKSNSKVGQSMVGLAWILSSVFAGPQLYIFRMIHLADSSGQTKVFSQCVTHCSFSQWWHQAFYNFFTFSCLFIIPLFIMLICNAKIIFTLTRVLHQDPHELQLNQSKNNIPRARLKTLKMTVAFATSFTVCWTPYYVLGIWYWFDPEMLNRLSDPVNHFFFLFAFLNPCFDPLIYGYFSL

[2] = target: T2, rat pituitary GnRH receptor (rat, UniProt P30969 1-327); test: radioligand displacement curves on rat pituitary membranes (control)
T2 construct: whole, on cells; also called Rat pituitaries
T2 sequence (looked up): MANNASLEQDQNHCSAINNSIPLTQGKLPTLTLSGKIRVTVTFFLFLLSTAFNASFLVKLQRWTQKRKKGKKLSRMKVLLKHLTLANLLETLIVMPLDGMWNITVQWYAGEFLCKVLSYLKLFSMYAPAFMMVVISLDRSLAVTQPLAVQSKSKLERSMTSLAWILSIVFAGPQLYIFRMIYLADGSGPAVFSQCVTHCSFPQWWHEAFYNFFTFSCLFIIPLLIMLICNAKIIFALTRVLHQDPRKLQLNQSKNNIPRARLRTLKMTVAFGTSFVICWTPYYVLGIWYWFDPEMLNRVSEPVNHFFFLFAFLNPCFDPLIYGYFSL

human GnRH receptor [3] = target: T1, human GnRH receptor; test: radioligand displacement curves on BLM melanoma cell membranes
human GnRH receptor [4] = target: T1, human GnRH receptor; test: radioligand displacement curves on ME15392 melanoma cell membranes

inhibition of proliferation of MV3 melanoma cells at 10^-4 M (human GnRH receptor [1]): 15%
inhibition of proliferation of MV3 melanoma cells at 10^-5 M (human GnRH receptor [1]): 35%
stimulation of growth of MV3 melanoma cells at 10^-6 M (human GnRH receptor [1]): 40%
Molecule: Antide (LHRH antagonist, Sigma Chemical Co., No. A8802) (peptide)

decrease of proliferation of U-87MG cells at 10^-6 M (human GnRH receptor [1]): 28%
inhibition of proliferation of U-87MG cells at 10^-5 M (human GnRH receptor [1]): 30%
Molecule: Cetrorelix (GnRH antagonist) (peptide)

inhibition of proliferation of MV3 melanoma cells from day 4 on (10^-4, 10^-5, 10^-6 M) (human GnRH receptor [1]): 15%
Molecule: Triptorelin (LHRH agonist, Sigma Chemical Co., No. L9761) (peptide)

Kd [2]: 1.5 to 2 nM
Kd (human GnRH receptor [3]): 0.7 to 1.1 nM
Kd (human GnRH receptor [4]): 0.1 to 0.6 nM
Molecule: [pGlu]HWSY[dSer(tBu)]LRP[azaGly]-NH2 (also: ^125I-labelled form used as tracer in binding assay, also called Goserelin) [GnRH agonist LHRH-A (ZOLADEX, [D-Ser(tBu)^6Aza-Gly-LHRH])]
